Experimental findings from paper PMC3781208 (Chemistry & biology, 2013) are described below.

Positions of bridges follow the written chain, without caps; N, C: chain ends. Non-standard residues stand in square brackets, D forms with d. Residues, ends and D or L forms follow the SMILES beside them. *: point of attachment. FITC = O=C1OC2(c3ccc(O)cc3Oc3cc(O)ccc32)c2ccc(NC(=S)*)cc21; S5 = C=CCCC[C@](C)(N)C(=O)O; Nle = CCCC[C@H](N)C(=O)O; βAla = NCCC(=O)O

In one assay the target is BAXΔC (Homo sapiens, UniProt Q07812). Kind of assay: Fluorescence polarization binding assay, BAXΔC. The conditions noted are these: ratio of FP KDs.
A further assay has as its target FITC-PUMA SAHBF1 (UniProt Q9BXH1). Kind of assay: fluorescence polarisation.
The target in assay [1] is FITC-PUMA BH3 (aa 131–153) (UniProt Q9BXH1). Kind of assay: fluorescence polarisation.
Chain of FITC-PUMA BH3 (aa 131–153) (Q9BXH1 131-153): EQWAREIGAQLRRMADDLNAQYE

Chain of BAXΔC (Q07812 whole entry, stated change not applied): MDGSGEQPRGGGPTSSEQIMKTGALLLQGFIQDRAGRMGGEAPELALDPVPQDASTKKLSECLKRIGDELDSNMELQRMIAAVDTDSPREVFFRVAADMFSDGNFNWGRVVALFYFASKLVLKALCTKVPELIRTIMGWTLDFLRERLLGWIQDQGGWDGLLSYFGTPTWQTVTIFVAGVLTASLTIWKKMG

Turning to `CCCC[C@@H]1NC(=O)[C@@](C)(NC(=O)[C@H](CCCNC(=N)N)NC(=O)[C@H](CC(C)C)NC(=O)[C@H](CCC(N)=O)NC(=O)[C@H](C)NC(=O)CNC(=O)[C@@H](NC(=O)[C@H](CCC(=O)O)NC(=O)[C@H](CCCNC(=N)N)NC(=O)[C@H](C)NC(=O)[C@H](Cc2c[nH]c3ccccc23)NC(=O)[C@H](CCC(N)=O)NC(=O)[C@H](CCC(=O)O)NC(=O)CCNC(=S)Nc2ccc3c(c2)C(=O)OC32c3ccc(O)cc3Oc3cc(O)ccc32)[C@@H](C)CC)CCCC=CCCC[C@@](C)(C(=O)N[C@@H](CC(C)C)C(=O)N[C@@H](CC(N)=O)C(=O)N[C@@H](C)C(=O)N[C@@H](CCC(N)=O)C(=O)N[C@@H](Cc2ccc(O)cc2)C(=O)N[C@@H](CCC(=O)O)C(N)=O)NC(=O)[C@H](CC(=O)O)NC(=O)[C@H](C)NC1=O` [FITC-PUMA SAHBA1] ({FITC-βAla}-EQWAREIGAQLR[S5][Nle]AD[S5]LNAQYE-NH2; staple 13-17; N-terminus and C-terminus assumed), the “preference for BAXΔC over BAX A112C/V177C” value on BAXΔC is 3 fold.

The compound “BAX A112C/V177C (from UniProt Q07812 1-192) (natural protein)” had a Kd with FITC-PUMA SAHBF1 of 90 nM.

For BAXΔC (domain or fragment), the Kd in assay [1] worked out at 306 nM; with FITC-PUMA SAHBF1, 70 nM.
